Reference: the supplement of paper PMC9170038

Test system: MS2 coat protein
Test: apparent KD of MS2 coat protein; higher = weaker reporter binding
Conditions: Eterna round: R107
Method: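 RNA-MaP round R107: designed RNA switches with theophylline, tryptophan, arginine or FMN aptamers are transcribed on-chip within common flanks. They are titrated with SNAP-549-labelled MS2 coat protein in RNA-MaP buffer (100 mM Tris pH 7.5, 80 mM KCl, 4 mM MgCl2), without ligand or with the indicated ligand. Median apparent KD per design.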

[1] = input ligand: theophylline 20 uM
[2] = input ligand: theophylline 2 mM
[3] = input ligand: tryptophan 2.4 mM

Sequence | apparent KD of MS2 coat protein (input ligand: arginine 13.2 mM) | apparent KD of MS2 coat protein (input ligand: none) | apparent KD of MS2 coat protein [1] | apparent KD of MS2 coat protein [2] | apparent KD of MS2 coat protein [3]
ACACAUGAGGAUCACCCAUGUAAAGUUGAAGGAGCGAUCAUUAGGUCAGGUAGGUCGCAGCACAUGAGGAUCACCCAUGUCGUGA [DOUBLE!!! :-D #2] | 31.3 nM | 96.1 nM | 85.5 nM | 73.7 nM | 86.9 nM
ACACCAUACAUGAGGAUCACCCAUGUUACACGAGGACCGGUACGGCCGCCACUCGAAUUCAGGAAACCUCGGAUAAUAUUGUGAA [JR_SS-TryptA_Sub001] | 22.3 nM |  | 50.1 nM | 32.4 nM | 
ACAUGAAUAUCAUCUAUUUAUUGUACUGAAGGAGCGUCCAUGAGGACAGGUAGGUCGCAGUGUAAAACAUGAGGAUCACCCAUGU [Same State - Arginine A #1] | 22.6 nM | 22.2 nM | 36.6 nM | 29 nM | 23 nM
ACAUGAGGAUCACCCAUGUAACAAACAGAAGGAGCGUGAAAGAACACAGGUAGGUCGCUGAACUUAAUGAAUACUCAUUAGAUCC [JR_Nu_SSArginiA_Sub027] | 13.4 nM | 14.7 nM | 18.9 nM | 15.8 nM | 14.6 nM
ACAUGAGGAUCACCCAUGUAAUCAUCAGAAGGAGCGUGGAAUAACACAGGUAGGUCGCUGAUGUUAUAUUAAUCUUAUUCGUAAA [JR_ExcArginiA_Sub003] | 22 nM | 13.6 nM | 18.7 nM | 13.2 nM | 14.2 nM
ACAUGAGGAUCACCCAUGUACUGGAUCUAACGAGGACCGGUACGGCCGCCACUCGAAGAUAGGACUAUGGAAACAUAGCUUAUCA [Design 1] | 15.3 nM | 15.3 nM | 19.9 nM | 18.4 nM | 14.6 nM
ACAUGAGGAUCACCCAUGUAGCGUAGGGAAGGAGCGGAAUAAAGUCCAGGUAGGUCGCCCAUAUGAUGAUCUCACUUAUUAUCGA [#12 Same State - Arginine A] | 27.7 nM | 31 nM | 42.5 nM | 42.2 nM | 30.5 nM
ACAUGAGGAUCACCCAUGUAGUGGCACGAUACCAGCUGAUCCCGUGGCCCUUGGCAGCGUCCGGUGUGGUGCGCCGGGUUGGAGC [BBBMULLIN] | 38 nM |  | 77.4 nM |  | 48.9 nM
ACAUGAGGAUCACCCAUGUCAGGGCACGAUACCAGCUGAUCCGGUGGCCCUUGGCAGCGUGACGAGUGGUCAUGAGGAUCACACG [?fmullin] | 75.8 nM | 128 nM | 176 nM | 158 nM | 130 nM
ACAUGAGGAUCACCCAUGUCAGGGCACGAUACCAGCUGAUCCGGUGGCCCUUGGCAGCGUGACGUUUGGUCCCGCGGAUCACACG [xxmullin] | 92.4 nM | 326 nM | 262 nM | 334 nM | 404 nM
ACAUGAGGAUCACCCAUGUGAGAUAGGGAAGGAGCGCAGGAGGAUGCAGGUAGGUCGCCCACAUGAGGAUCACCCGUGUCUGGAG [#11 Exclusion - Arginine A] | 33.2 nM | 43.4 nM | 33 nM | 62.4 nM | 33.1 nM
ACAUGAGGAUCACCCAUGUGCAGCACGGAUACCAGCGUCCUAGUGCGCCCUUGGCAGCCGGACAUGAGGAUCACCCAUGUGUGGG [Exclusion Theophylline A GF30] | 50.2 nM |  | 135 nM |  | 95.7 nM
ACAUGAGGAUCACCCAUGUGGCGUCUUGAUACCAGACGAGAAGUAGUCCCUUGGCAGCAAAUACGUGAGGAUCACACAUGUGCGA [cccmullin3] | 24.4 nM |  | 30.9 nM |  | 29 nM
ACAUGAGGAUCACCCAUGUUCCUCGCCGAUACCAGUGAAGAAGUACGCCCUUGGCAGCGGAAAGAGUAUUUUGGAGAUGAGGUAC [6.Y] | 57 nM |  | 94.3 nM |  | 88.3 nM
ACAUGAGGAUCACCCAUGUUUGAUGUUCCUCGAGGACCGGUACGGCCGCCACUCGAACGAGUGGCGCGCGAGCGCGCGCUCGCGC [aRa] | 11.4 nM |  | 20.3 nM | 14.8 nM | 
ACAUGAGGAUCACCCAUGUUUGUUGUUCCUCGAGGACCGGUACGGCCGCCACUCGAACGAGUGGCGCGCGCGCGCGCGCGCGCGC [aMa] | 11.6 nM | 13.3 nM | 36.4 nM | 16.4 nM | 12.6 nM
ACAUUGCGCUCGGCCGCCACUGGCUUAUGAUUAUAAGCAUUAAUGAACAUGAGGAUCACCCAUGUCAGGACCGGGAGCGAACCAU [SSTryp B #7] | 13.6 nM |  | 17.7 nM | 14.9 nM | 
ACCGGCACCUAGGAUACCAGAUCCACAACAAACAUGAGGAUCACCCAUGUAUAAAGUGGUAUCCCUUGGCAGCCUGUGACAAUCG [theeternabot_sameState_MS2_Theo_B_19] | 17 nM |  | 21.4 nM |  | 15.8 nM
ACCUGUACGAAAAGUGCAGGACACGGAAUACGAGGACCGGUACGGCCGCCACUCGGAACCUGAGGAUCACCCUGGUAAAACCGUG [TrypAS 13 #AlternativeMS2 #Zipper #StaticStem] | 19.9 nM | 17.8 nM | 22.6 nM | 24 nM | 19.5 nM

Sequence | apparent KD of MS2 coat protein (input ligand: arginine 13.2 mM) | apparent KD of MS2 coat protein (input ligand: none) | apparent KD of MS2 coat protein [1] | apparent KD of MS2 coat protein [2] | apparent KD of MS2 coat protein [3]
ACGAACGCACCUGAGGAUCACCCGGGUGAUACCAGCCUGGAAACAGGCCCUUGGCAGCACCUAAAAUAAAGGUAACGUUCGAAUA [TheoAX9 #MicroSwitchBubble #AlternativeMS2] | 116 nM | 335 nM | 234 nM | 590 nM | 303 nM
ACGACGCAUAGUGAUACCAGUAGAACAUGAGGAUCACCCAUGUCUGUUAUGUACAAAUACUGCCCUUGGCAGCACUAUGCGUCAG [SSTheo B #5] | 9.85 nM |  | 12.1 nM |  | 11.6 nM
ACGAGACGUCUGGAUACCAGCCCAGCGAUAAACAUGAGGAUCACCCAUGUCAAACCACCCGGCCCUUGGCAGCCACGUACCUCAC [theeternabot_sameState_MS2_Theo_B_10] | 15.9 nM |  | 19.1 nM |  | 14.9 nM
ACGAUAGGACUUGAGGAUCACCCAAGUGAUACCAGCCUGGAAACAGGCCCUUGGCAGCACUAAUACUCCAAUAACCUAUCGAAUA [TheoAX 14 #MicroSwitchBubble #AlternativeMS2] | 78.6 nM | 232 nM | 228 nM | 387 nM | 395 nM
ACGGGCAUGGCGGCCGCCACUGGUUGGCGUGCGGAUGAGGGAACAUGAGGAUCACCCAUGUUGGUUAGGACCGGGCUGGCGUCGA [kkymullin] | 12.6 nM | 15.4 nM | 49.8 nM | 16 nM | 18 nM
ACGUAAUGCGGAAGGAGCGUCAUUUUAAAACAUGAGGAUCACCCAUGUAAUAUUUUUGUGUGACAGGUAGGUCGCCGAAGUACGA [#07 Same State - Arginine B] | 14.4 nM | 12.9 nM | 19.3 nM | 14.4 nM | 13.6 nM
ACGUUUUAGUCGGCCGCCACUGUUUUCAUGUUCAACAUGAGGAUCACCCAUGUACCUUUUUUUAUCAGGACCGGGACGUAAUAGA [JR_SSTryptoB_Sub004] | 47.7 nM |  | 102 nM | 77.3 nM | 
ACUGGACAUGAGGAUCACCCAUGUGGCGAUACCAGUUUCAGCGGGAACCCUUGGCAGCGCGGUGCCGGCCAUAGAAGUUCUGGGA [theeternabot_sameState_MS2_Theo_A_39] | 42.1 nM |  | 56.1 nM |  | 40.6 nM
ACUUUGUCGGGUGAUACCAGCCUCGGCAAAUCUCGUGCCGAACAUGAGGAUCACCCAUGUGGCCCUUGGCAGCACAUGACAACUC [Cezara] | 26.3 nM |  | 546 nM |  | 912 nM
AGACAUGAGGAUCACCCAUGUAGUACGGAUACCAGAUCCAGAUGCGUCCCUUGGCAGCUGUAGUACAGCGUUACAUCGCUCGUAG [Exclusion - Theophylline A (Freestyle 24)] | 16.9 nM |  | 24.8 nM |  | 22.4 nM
AGAUUACAUGUUAUAAUACGGUAUACUGAUACCAGUGUUUCUAUUCACCCUUGGCAGCAGCAACAUGAGGAUCACCCAUGUAUUA [JR_SSTheophyA_Sub017] | 14.9 nM |  | 21.4 nM |  | 17.7 nM
AGAUUCGACACGGCCGCCACUCGUGACGGAUUUCCGAGUGUCGAACAUGAGGAUCACCCAUGUACGAGGACCGGGUGUUGAGUCU [XTryp B #13] | 39.6 nM |  | 86.7 nM | 90.4 nM | 
AGCAACAAGUCGGCCGCCACUCUUUUAACAUGAGGAUCACCCAUGUUUAUAUCAUGGUUUUAAUAGAGGACCGGGACAGUUGCAU [JR_ExcTryptoB_Sub005] | 26.3 nM |  | 37 nM | 43.2 nM | 
AGCACGGUGAUGGUAGCCGGACGAUAAGUACGAGGACCGGUACGGCCGCCACUCGAAGUCCUACGACAUGAGGAUCACCCAUGUA [Same State Trp A GF11] | 30.4 nM |  | 47 nM | 73.6 nM | 
AGCACUGUGACGGCCGCCACUAUAUUAGGGUGGUCAGGUUCAUAAAUACAUGAGGAUCACCCAUGUAGGACCGGGUCUCAGUGCA [Omei Trp Exc B A v3] | 11.1 nM |  | 13.8 nM | 12.3 nM | 
AGCAGCUCGAAAGAGUUGCACUCAUGUGAAGGAGCGCCCGUUAGGGCAGGUAGGUCGCACAUGAGGAUCACCCAUGUACCUUCUA [ArgAX 20 #OpenEnded #MS2Late] | 84.4 nM | 174 nM | 182 nM | 273 nM | 188 nM
AGCAGCUGGUUUCUUUUCUUUACAGCUGCACGAGGACCGGUACGGCCGCCACUCGAGGACAUGAGGAUCACCCAUGUGCCGGUCG | 34.1 nM | 25.6 nM | 40.6 nM | 49.7 nM | 22.7 nM
AGCGACAUGCGUGAUACCAGCUACAUGAGGAUCACCCAUGUACGUCAGUAAUGACUGUGUAGCCCUUGGCAGCAUAAUGCAUGUC [Exclusion - Theophylline B (Freestyle 18)] | 36.1 nM |  | 55.8 nM |  | 33.3 nM
AGCGCAGGUCCUGAUACCAGAGACAUGAGGAUCACCCAUGUCCGAUGGUCCUGCCUCAGGCUCCCUUGGCAGCAGGGCUUGUGCU [Exclusion Theophylline B GF10] | 10.6 nM |  | 13.1 nM |  | 10.1 nM
